Consider 20 molecules from patent US20250195685A1 (CAPSTAN THERAPEUTICS, published 2025).

B1: CBD1033.44 disulfide-engineered F(ab') analog (IgG1, truncated T238) (Fab, V domains shown)
VH: QVQLVQSGAEVKKPGASVKVSCKASRYTFTDYNLHWVRQAPGQGLEWMGFIYPYNGGTGYAQKFQGRVTMTVDTSTSTAYMELSSLRSEDTAVYYCARDHRYNEGVSFDYWGQGTTVTVSS
VL: DIQLTQSPSSLSASVGDRATITCRASESVDGFGNSFMNWYQQKPGKAPKLLIYLASNLESGVPSRFSGSGSGTDFTLTISSVQPEDFATYYCQQNNEDPYTFGQGTKLEIKR
notes: also called .44 design
B2: CBD1033.42 disulfide-engineered F(ab') analog (IgG1, truncated P240) (Fab, V domains shown)
VH: B1 VH
VL: B1 VL
notes: also called .42 design
B3: CBD1033.45 disulfide-engineered F(ab') analog (IgG1, truncated T238, C233S) (Fab, V domains shown)
VH: B1 VH
VL: B1 VL
notes: also called .45 design
B4: CBD1380 (Fab, V domains shown)
VH: B1 VH with N55S
VL: DIQLTQSPSSLSASVGDRATITCRASESVDGFGNSFMNWYQQKPGKAPKLLIYLASNLESGVPSRFSGSGSGTDFTLTISSVQPEDFATYYCQQNNEDPYTFGQGTKLEIK
B5: CBD1623 Fab (VL D30S and VH N55A of CBD1033) (Fab, V domains shown)
VH: B1 VH with N55A
VL: B4 VL with D30S
notes: also called D30S and N55A
B6: CBD1381 (Fab, V domains shown)
VH: B1 VH with N55Q
VL: B4 VL
B7: CBD1443 Fab (VL D30E of CBD1033) (Fab, V domains shown)
VH: B1 VH
VL: B4 VL with D30E
B8: CBD1382 (Fab, V domains shown)
VH: B1 VH with N55A
VL: B4 VL
B9: CBD1444 Fab (VL D30S of CBD1033) (Fab, V domains shown)
VH: B1 VH
VL: B4 VL with D30S
B10: CBD1622 Fab (VL D30S and VH N55Q of CBD1033) (Fab, V domains shown)
VH: B1 VH with N55Q
VL: B4 VL with D30S
notes: also called D30S and N55Q
B11: CBD1445 Fab (VL D30A of CBD1033) (Fab, V domains shown)
VH: B1 VH
VL: B4 VL with D30A
B12: CBD1032 (Fab, V domains shown)
VH: B1 VH with V72R, A79V
VL: B4 VL with L4M, A19V, V82L
notes: also called h1017-H1/L1 F(ab)
B13: CBD1038 (Fab, V domains shown)
VH: B1 VH with T74Y
VL: B4 VL with G72R
notes: also called h1017-H4/L3 F(ab)
B14: CBD1037 (Fab, V domains shown)
VH: B1 VH with T74Y
VL: B4 VL
notes: also called h1017-H4/L2 F(ab)
B15: CBD1040 (Fab, V domains shown)
VH: B1 VH with V20I, M48I, V68A, M70L, T74Y, V117L
VL: B4 VL with G72R
notes: also called h1017-H5/L3 F(ab)
B16: CBD1036 (Fab, V domains shown)
VH: B1 VH with V20I, M48I, V68A, M70L, V117L
VL: B4 VL with G72R
notes: also called h1017-H3/L3 F(ab)
B17: CBD1039 (Fab, V domains shown)
VH: B1 VH with V20I, M48I, V68A, M70L, T74Y, V117L
VL: B4 VL
notes: also called h1017-H5/L2 F(ab)
B18: CBD1035 (Fab, V domains shown)
VH: B1 VH with V20I, M48I, V68A, M70L, V117L
VL: B4 VL
notes: also called h1017-H3/L2 F(ab)
B19: CBD1034 (Fab, V domains shown)
VH: B1 VH
VL: B4 VL with G72R
notes: also called h1017-H2/L3 F(ab)
B20: CDB1017p (Fab, V domains shown)
VH: EVQLQQSGPELVKPGASVKISCKASRYTFTDYNLHWVKLSHEKSLEWIGFIYPYNGGTGYNQKFKNKAKLTVDYSSSTAYMELRSLTSVDAAVYYCARDHRYNEGVSFDYWGQGTTLTVSS
VL: NIVLTQSPASLAVSLGQRATISCRASESVDGFGNSFMNWYQQKPGQSPKLLIYLASNLESGVPARFSGSGSRTDFTLTIDPVEADDAATYYCQQNNEDPYTFGGGTKLEIK
notes: CDB1017p [sic]; also called CBD1017p; mouse CT8 F(ab)

Where a chain is given by its changes, count along the chain named. Names and notes keep the numbering of the source.

The target of the first experiment is T1, human CD8αα homodimer, recombinant protein (Acro Biosystems) (human, UniProt P01732 22-182).
T1 construct: also called CD8αα antigen; biotinylated CD8α recombinant protein (CDA-H82E3)
T1 sequence (P01732 22-182 limits assumed): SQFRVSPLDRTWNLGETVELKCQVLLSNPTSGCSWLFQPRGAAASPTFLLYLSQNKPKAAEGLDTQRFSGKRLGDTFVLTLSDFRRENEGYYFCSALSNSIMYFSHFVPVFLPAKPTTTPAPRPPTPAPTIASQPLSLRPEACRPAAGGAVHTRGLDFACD
Briefly: BLI kinetic assay, engineered F(ab') fragment. How it is done:
The global fitting was performed with a 1:1 fitting model using GatorOne software as described below.
(§1) Biolayer interferometry kinetic assays were performed using a GatorBio Gator Plus BLI system. Kinetic buffer containing PBS plus 0.1% Tween 20 and 0.2% BSA was used for calculating the baseline. To measure the binding kinetics of anti-CD8α antibody fragment (Fab), streptavidin-immobilized SA-XT sensors (#160029, Gator Bio) were prehydrated in the kinetic buffer and loaded with […] biotinylated CD8α recombinant protein (CDA-H82E3, Acro Biosystems) at a spin speed of 400 rpm to a threshold response of 10 nm. The sensors were then incubated in the kinetic buffer for 300 s to acquire a baseline measurement prior to each association. […] The antigen-loaded sensors were incubated in the diluted solutions to capture Fab fragments for 300 s to record the association phase. Sensors were finally incubated in the kinetic buffer for 900 s to record the dissociation phase. The spin speed for all steps except the antigen loading step was 1000 rpm. The temperature of the performed assays was either 30° C. or 37° C. during the association and dissociation phases. Sensor data were baseline subtracted, and global curve fitting of the kinetic data from six different analyte concentrations at a 1:1 monovalent binding model was performed using GatorOne software (version v2.10) to determine kinetic rate constants (kₒₙ and koff) and equilibrium dissociation constants (KD) of the analyzed antibodies.
Background: Biolayer interferometry detects binding as a change in optical thickness at a sensor tip.
As to B1, the Kd turned out to be 7.23 nM, the koff is 8.88e-05 s⁻¹ and the kon turned out to be 12300 M⁻¹ s⁻¹.

B2: the Kd came to 5.09 nM, the koff came out at 6.41e-05 s⁻¹ and the kon turned out to be 12600 M⁻¹ s⁻¹.

Regarding B3, the Kd was 9.03 nM, the koff is 0.000117 s⁻¹ and the kon worked out at 13000 M⁻¹ s⁻¹.

A further experiment addresses T1, human CD8αα homodimer, recombinant …. Briefly: BLI kinetic rate analysis, Fab fragment (temperature not given). How it is done:
as §1
On to B4, for which the Kd was 1.93 nM, the koff turned out to be 0.000116 s⁻¹ and the kon stood at 59900 M⁻¹ s⁻¹.

As to B5, the Kd worked out at 0.617 nM, the koff was found to be 7.02e-05 s⁻¹ and the kon was determined as 114000 M⁻¹ s⁻¹.

Turning to B6, the Kd was determined as 1.22 nM, the koff amounted to 9.59e-05 s⁻¹ and the kon turned out to be 78600 M⁻¹ s⁻¹.

For B7, the Kd was found to be 10 nM, the koff is 0.000284 s⁻¹ and the kon turned out to be 28400 M⁻¹ s⁻¹.

B8: the Kd came out at 0.86 nM, the koff was determined as 6.91e-05 s⁻¹ and the kon turned out to be 80300 M⁻¹ s⁻¹.

Regarding B9, the Kd was 7.69 nM, the koff is 0.000196 s⁻¹ and the kon amounted to 25500 M⁻¹ s⁻¹.

Turning to B10, the Kd was 2.91 nM, the koff is 9.97e-05 s⁻¹ and the kon came out at 34300 M⁻¹ s⁻¹.

In the case of B11, the Kd worked out at 15.6 nM, the koff worked out at 0.00048 s⁻¹ and the kon worked out at 30700 M⁻¹ s⁻¹.

For another experiment the target is unchanged. Briefly: BLI kinetics, F(ab) on biotinylated CD8α (SA-XT sensor), 1:1 fit, 30 °C. How it is done: as §1
As for B12, the Kd was found to be 1.84 nM, the koff worked out at 9.45e-05 s⁻¹ and the kon worked out at 51500 M⁻¹ s⁻¹.

Regarding B13, the Kd came to 2.31 nM, the koff was 0.000146 s⁻¹ and the kon came out at 63300 M⁻¹ s⁻¹.

As for B14, the Kd came out at 1.72 nM, the koff came to 0.000114 s⁻¹ and the kon is 66000 M⁻¹ s⁻¹.

On to B15, for which the Kd came to 6.07 nM, the koff turned out to be 0.00017 s⁻¹ and the kon stood at 28000 M⁻¹ s⁻¹.

On to B16, for which the Kd was determined as 6.16 nM, the koff was 0.000207 s⁻¹ and the kon worked out at 33700 M⁻¹ s⁻¹.

Regarding B17, the Kd was 3.11 nM, the koff came out at 0.000157 s⁻¹ and the kon was 50400 M⁻¹ s⁻¹.

B18: the Kd stood at 3.07 nM, the koff came out at 0.000144 s⁻¹ and the kon is 46900 M⁻¹ s⁻¹.

Regarding B19, the Kd turned out to be 9.9 nM, the koff came out at 0.000204 s⁻¹ and the kon is 20900 M⁻¹ s⁻¹.

Regarding B20, the Kd was 1.19 nM, the koff amounted to 7.76e-05 s⁻¹ and the kon stood at 65100 M⁻¹ s⁻¹.

The next experiment shares this target. Briefly: BLI kinetics, F(ab) on biotinylated CD8α (SA-XT sensor), 1:1 fit, 37 °C [CONT'ED]. How it is done:
as §1
Turning to B12, the Kd was found to be 1.59 nM, the koff stood at 5.35e-05 s⁻¹ and the kon came to 33700 M⁻¹ s⁻¹.

As to B13, the Kd worked out at 7.42 nM, the koff amounted to 0.00014 s⁻¹ and the kon stood at 18900 M⁻¹ s⁻¹.

Consider B14, for which the Kd was determined as 1.27 nM, the koff stood at 9.71e-05 s⁻¹ and the kon turned out to be 76800 M⁻¹ s⁻¹.

On to B15, for which the Kd is 7.39 nM, the koff was found to be 0.000103 s⁻¹ and the kon came out at 14000 M⁻¹ s⁻¹.

As to B16, the Kd was determined as 1.68 nM, the koff is 0.000194 s⁻¹ and the kon stood at 117000 M⁻¹ s⁻¹.

Consider B17, for which the Kd worked out at 4.59 nM, the koff worked out at 9.27e-05 s⁻¹ and the kon came to 20200 M⁻¹ s⁻¹.

B18: the dissociation constant (Kd) is 8.02 nM, the koff stood at 9.12e-05 s⁻¹ and the kon was 11400 M⁻¹ s⁻¹.

On to B19, for which the Kd was determined as 1.82 nM, the koff was determined as 0.000187 s⁻¹ and the kon turned out to be 103000 M⁻¹ s⁻¹.

Broadly, the Kd is the free concentration of one partner at which half of the binding sites on the other are occupied at equilibrium, for simple one-to-one binding. One may read the koff as the rate constant with which the complex falls apart. As usually defined, the kon is a measure of how fast the partners come together.
